Experiments:
Assay in all cases: purified protein
purified protein [1] = substrate: O=c1[nH]c(=O)c2ncn([C@@H]3O[C@H](COP(=O)(O)O)[C@@H](O)[C@H]3O)c2[nH]1; details: 50 mM imidazole pH 7.0, 5 mM MgCl2, 30 °C
purified protein [2] = substrate: Nc1ccn([C@@H]2O[C@H](COP(=O)(O)O)[C@@H](O)[C@H]2O)c(=O)n1; details: 50 mM imidazole pH 7.0, 5 mM MgCl2, 30 °C
purified protein [3] = substrate: Nc1ncnc2c1ncn2[C@@H]1O[C@H](COP(=O)(O)O)[C@@H](O)[C@H]1O; details: 50 mM imidazole pH 7.0, 5 mM MgCl2, 30 °C
purified protein [4] = substrate: Nc1nc2c(ncn2[C@@H]2O[C@H](COP(=O)(O)O)[C@@H](O)[C@H]2O)c(=O)[nH]1; details: 50 mM imidazole pH 7.0, 5 mM MgCl2, 30 °C
purified protein [5] = substrate: Cc1cc2nc3c(=O)[nH]c(=O)nc-3n(C[C@H](O)[C@H](O)[C@H](O)COP(=O)(O)O)c2cc1C; details: 50 mM imidazole pH 7.0, 5 mM MgCl2, 30 °C
purified protein [6] = substrate: NC(=O)c1ncn([C@@H]2O[C@H](COP(=O)(O)O)[C@@H](O)[C@H]2O)c1N; details: 50 mM imidazole pH 7.0, 5 mM MgCl2, 30 °C, Hill plot fit (sigmoidal kinetics)
purified protein [7] = substrate: Nc1ncnc2c1ncn2[C@H]1C[C@H](O)[C@@H](COP(=O)(O)O)O1; details: 50 mM imidazole pH 7.0, 5 mM MgCl2, 30 °C
purified protein [8] = substrate: Nc1nc2c(ncn2[C@H]2C[C@H](O)[C@@H](COP(=O)(O)O)O2)c(=O)[nH]1; details: 50 mM imidazole pH 7.0, 5 mM MgCl2, 30 °C

B1: Ht-YitUBs (Bacillus subtilis subsp. subtilis str. 168) (protein)
chain: METKPYLIALDLDGTLLKDDKTISENTLHTIQRLKDDGHYVCISTGRPYRSSSMYYQQMELTTPIVNFNGAFVHHPQDDSWGRYHTSLPLDVVKQLVDISESYNVHNVLAEVIDDVYFHYHDEHLIDAFNMNTTNVTVGDLRENLGEDVTSVLIHAKEEDVPAIRSYLSDVHAEVIDHRRWAAPWHVIEIIKSGMNKAVGLQKISDYYGVPRERIIAFGDEDNDLEMLEFAGCGVAMGNGIDAVKQIANRTTATNEEDGVARFLKEYFSL
For B1, which Km (purified protein [1]) is on record?
The Km was 21.74 ± 2.93 mM.

And the Vmax (purified protein [1])?
Its Vmax is 70.5 µmol/min/mg.

What about the kcat (purified protein [1]) of the same protein?
Its kcat is 37.5 s⁻¹.

And the kcat/Km (purified protein [1])?
The kcat/Km was 1720 M⁻¹ s⁻¹.

What about the Km (purified protein [2]) of the same protein?
The Km was 17.45 ± 1.82 mM.

What about the Vmax (purified protein [2]) of the same protein?
The Vmax was 73.7 µmol/min/mg.

What about the kcat (purified protein [2]) of the same protein?
Its kcat is 39.2 s⁻¹.

And the kcat/Km (purified protein [2])?
The kcat/Km was 2250 M⁻¹ s⁻¹.

And the Km (purified protein [3])?
The Km was 14.32 ± 1.01 mM.

What about the Vmax (purified protein [3]) of the same protein?
The Vmax was 52.9 µmol/min/mg.

And the kcat (purified protein [3])?
Its kcat is 28.2 s⁻¹.

And the kcat/Km (purified protein [3])?
The kcat/Km was 1970 M⁻¹ s⁻¹.

And the Km (purified protein [4])?
The Km was 7.00 ± 0.29 mM.

What about the Vmax (purified protein [4]) of the same protein?
The Vmax was 40 µmol/min/mg.

And the kcat (purified protein [4])?
The kcat was 21.3 s⁻¹.

What about the kcat/Km (purified protein [4]) of the same protein?
Its kcat/Km is 3040 M⁻¹ s⁻¹.

And the Km (purified protein [5])?
Its Km is 0.096 ± 0.015 mM.

What about the Vmax (purified protein [5]) of the same protein?
Its Vmax is 43.2 µmol/min/mg.

What about the kcat (purified protein [5]) of the same protein?
The kcat was 23 s⁻¹.

What about the kcat/Km (purified protein [5]) of the same protein?
The kcat/Km was 239000 M⁻¹ s⁻¹.

And the K0.5 (purified protein [6])?
Its K0.5 is 10.19 ± 1.50 mM.

And the Vmax (purified protein [6])?
Its Vmax is 21.2 µmol/min/mg.

And the kcat (purified protein [6])?
The kcat was 11.3 s⁻¹.

What about the kcat/Km (purified protein [6]) of the same protein?
The kcat/Km was 1110 M⁻¹ s⁻¹.

What about the Km (purified protein [7]) of the same protein?
The Km was 8.24 ± 0.42 mM.

And the Vmax (purified protein [7])?
Its Vmax is 49.4 µmol/min/mg.

And the kcat (purified protein [7])?
The kcat was 26.2 s⁻¹.

And the kcat/Km (purified protein [7])?
Its kcat/Km is 3190 M⁻¹ s⁻¹.

What about the Km (purified protein [8]) of the same protein?
The Km was 5.61 ± 0.79 mM.

What about the Vmax (purified protein [8]) of the same protein?
The Vmax was 25.9 µmol/min/mg.

And the kcat (purified protein [8])?
Its kcat is 13.8 s⁻¹.

What about the kcat/Km (purified protein [8]) of the same protein?
Its kcat/Km is 2460 M⁻¹ s⁻¹.

Reference: article PMC7062661, “Expression and purification of the 5′-nucleotidase YitU from Bacillus species: its enzymatic properties and possible applications in biotechnology” (Applied Microbiology and Biotechnology, 2020)
